This passage reports Kd and fold KD against the F4/BSA complex results from PMC10138348, “Continuous Fluorescent Sirtuin Activity Assay Based on Fatty Acylated Lysines” (International Journal of Molecular Sciences, 2023).

For experiment [1], the target named is F4, TNFα-derived peptide with a myristoylated lysine and fluorescein-labelled cysteine in the +2 position. Description: fluorescence polarisation; BSA in serial dilution from 752 µM, labelled peptide fixed; 384-well plate, 20 mM Tris-HCl pH 7.8, 150 mM NaCl, 5 mM MgCl2; three independent replicates.
For experiment [2], the target named is F6, deacylated fluorescein-labelled peptide product of F4 (fluorophore in +2 position). The experiment is described as above.
The target in experiment [3] is F4, TNFα-derived peptide with a myristoylated lysine and fluorescein-labelled cysteine in the +2 position. Description: other fluorescence titration; fluorescence spectra of the labelled peptide with increasing concentrations of BSA; excitation 490 nm, relative intensity at 517 nm against BSA concentration; n = 1.
Experiment [4] has as its target F6, deacylated fluorescein-labelled peptide product of F4 (fluorophore in +2 position). Described as above.

Chain of bovine serum albumin (P02769 25-607): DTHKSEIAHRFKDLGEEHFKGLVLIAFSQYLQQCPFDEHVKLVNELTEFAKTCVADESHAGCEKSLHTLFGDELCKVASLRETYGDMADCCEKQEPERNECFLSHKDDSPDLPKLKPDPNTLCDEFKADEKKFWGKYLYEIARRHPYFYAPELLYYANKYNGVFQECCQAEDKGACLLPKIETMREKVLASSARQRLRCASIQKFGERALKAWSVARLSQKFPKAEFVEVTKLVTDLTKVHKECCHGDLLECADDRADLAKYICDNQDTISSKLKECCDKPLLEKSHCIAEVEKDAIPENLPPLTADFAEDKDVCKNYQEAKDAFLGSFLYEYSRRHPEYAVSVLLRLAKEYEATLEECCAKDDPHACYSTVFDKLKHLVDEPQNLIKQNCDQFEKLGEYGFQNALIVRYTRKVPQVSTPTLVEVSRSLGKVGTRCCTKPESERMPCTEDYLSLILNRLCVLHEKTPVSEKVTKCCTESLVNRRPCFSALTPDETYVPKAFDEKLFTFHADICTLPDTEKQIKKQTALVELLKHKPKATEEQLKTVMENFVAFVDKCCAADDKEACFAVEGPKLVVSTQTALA

On to “bovine serum albumin (from UniProt P02769 25-607) (natural protein)”, for which the values for the Kd in experiment [1] and in experiment [3] were 1.6 µM and 1.2 µM, respectively. The fold KD against the F4/BSA complex in experiment [2] and in experiment [4] was more than 100 fold throughout.
